Assay: Experiment 8: interaction of BMX-001 with t-PA (blood clot dissolution)
Design: species or system rat
Details: rat blood clots; 1 mg/ml t-PA with or without 50 μg/ml BMX-001; 37° C. for 30 minutes
Experimental: Fresh arterial blood samples were collected from young male rats and distributed into 21 pre-weighed centrifuge tubes. After sitting at 37° C. for 3 hours, the blood clots were formed. The supernatant was removed from these tubes and then the tubes with blood clots were weighed. The weight of the blood clot was calculated (=the tube with blood clot-pre-weighed tube). Then, 1 ml saline, t-PA (1 mg/ml) or t-PA (1 mg/ml) plus BMX-001 (50 μg/ml) were added (n=7 for each group) and tubes placed in 37° C. dry incubator for 3 hours. The liquids were then removed from the tubes. The tubes with remaining blood clots were weighed again. The percentage of blood clot dissolved by t-PA was calculated.

B1: tissue plasminogen activator (protein, UniProt P00750 36-562, looked up)
Tissue-type plasminogen …: SYQVICRDEKTQMIYQQHQSWLRPVLRSNRVEYCWCNSGRAQCHSVPVKSCSEPRCFNGGTCQQALYFSDFVCQCPEGFAGKCCEIDTRATCYEDQGISYRGTWSTAESGAECTNWNSSALAQKPYSGRRPDAIRLGLGNHNYCRNPDRDSKPWCYVFKAGKYSSEFCSTPACSEGNSDCYFGNGSAYRGTHSLTESGASCLPWNSMILIGKVYTAQNPSAQALGLGKHNYCRNPDGDAKPWCHVLKNRRLTWEYCDVPSCSTCGLRQYSQPQFRIKGGLFADIASHPWQAAIFAKHRRSPGERFLCGGILISSCWILSAAHCFQERFPPHHLTVILGRTYRVVPGEEEQKFEVEKYIVHKEFDDDTYDNDIALLQLKSDSSRCAQESSVVRTVCLPPADLQLPDWTECELSGYGKHEALSPFYSERLKEAHVRLYPSSRCTSQHLLNRTVTDNMLCAGDTRSGGPQANLHDACQGDSGGPLVCLNDGRMTLVGIISWGLGCGQKDVPGVYTKVTNYLDWIRDNMRP
notes: standard thrombolytic therapy
Percentage of blood clot dissolved: 44.77±25.77%

Source: patent US20240342190A1, “METHODS FOR REDUCING ISCHEMIA-REPERFUSION INJURIES” (BioMimetix JV, LLC, priority 2023, published 2024)
